Measured values published in publication PMC10269571.

Target: 3M2e-ferritin nanoparticle (three copies of M2e of H1N1 influenza virus fused to the N terminus of H. pylori ferritin) (influenza A virus H1N1 | Helicobacter pylori)
Assay: native gel or EMSA

“3M2e-ferritin nanoparticle (three copies of M2e of H1N1 influenza virus fused to the N terminus of H. pylori ferritin)” showed a stoichiometry N of 24.
